{"source": "patent US20050089871", "target": "D1 receptor of human renal proximal tubule cells (UniProt P21728)", "sequence (P21728 whole entry)": "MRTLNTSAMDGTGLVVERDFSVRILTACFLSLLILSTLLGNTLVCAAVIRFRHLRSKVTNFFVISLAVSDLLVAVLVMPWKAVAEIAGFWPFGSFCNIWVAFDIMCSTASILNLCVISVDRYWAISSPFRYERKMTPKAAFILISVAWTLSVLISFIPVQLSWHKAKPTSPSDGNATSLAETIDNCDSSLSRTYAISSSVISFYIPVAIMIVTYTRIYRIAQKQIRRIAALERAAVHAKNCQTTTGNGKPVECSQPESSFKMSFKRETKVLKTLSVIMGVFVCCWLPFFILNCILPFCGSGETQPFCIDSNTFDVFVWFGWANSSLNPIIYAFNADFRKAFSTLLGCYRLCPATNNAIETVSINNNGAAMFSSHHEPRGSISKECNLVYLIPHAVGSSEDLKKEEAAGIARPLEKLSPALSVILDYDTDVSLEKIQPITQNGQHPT"}
{"substance": "GRK4 of human renal proximal tubule cells", "values": [{"measurement": "serine phosphorylation of the D1 receptor (immunoprecipitation with anti D1 receptor antibody, anti-phosphoserine immunoblot) after GRK4 antisense treatment", "value": "GRK4 antisense treatment almost completely abolished the phosphorylation of the D1 receptor in fenoldopam-treated renal proximal tubule cells from hypertensive subjects to levels that are lower than basal values"}]}
